Measurements published in article PMC11261467.

How the values were obtained:
Test in all cases: SPR
[1] = target: plasma-derived C4b (unfractionated) (human) (UniProt P0C0L4)
[2] = target: plasma-derived C3b (unfractionated) (human) (UniProt P01024)
[3] = target: His-tagged CSL040/LHR-ABC (human) (UniProt P17927)

Substance: LHR-A (soluble human CR1 truncation), untagged (from UniProt P17927 42-489) (domain or fragment)
- Kd [1]: 1230 nM

Substance: LHR-AA (soluble human CR1 variant with two tandem LHR-A domains), untagged (from UniProt P17927 42-489; P17927 42-489)
- Kd [1]: 1540 nM

Substance: LHR-AB (soluble human CR1 truncation), untagged (from UniProt P17927 42-939) (domain or fragment)
- Kd [2]: 305 nM
- Kd [1]: 530 nM

Substance: LHR-B (soluble human CR1 truncation), untagged (from UniProt P17927 490-939) (domain or fragment)
- Kd [2]: 337 nM
- Kd [1]: 1910 nM

Substance: LHR-BC (soluble human CR1 truncation), untagged (from UniProt P17927 490-1392) (domain or fragment)
- Kd [2]: 78.2 nM
- Kd [1]: 581 nM

Substance: plasma-derived C3b (unfractionated) (from UniProt P01024 749-1663; P01024 749-1663) (ligand)
- Kd [3]: 134 nM

Substance: plasma-derived C3b dimer (purified by size-exclusion chromatography) (from UniProt P01024 749-1663; P01024 749-1663) (complex)
- Kd [3]: 3.8 nM
